# Laboratory results from patent publication US20110293610A1 (published 2011).
# Residue numbers refer to the chain shown, from its start.
# B1: I026C04-R (scFv)
# scFv: QVQLVQSGAEVKKPGSSVKVSCRASGGSFNRHAISWVRQAPGRGLEWMGGILPMYGTANYAQKFQGRVTITADKLTNTVYMDLSRLRYEDTAVYYCARELGLSIVGATTGALDMWGKGTLVTVSSGGGGSGGGGSGGGGSAQSVLTQPPSVSAAPGQKVTISCSGSSSNIGNNYVSWYQQIPGTAPKLLIYENNKRPSGIPDRFSGSKSGASATLDITGLQTGDEADYYCGTWHSSQVVFGGGTKLTVLG
# B2: I065F08 (scFv)
# scFv: QVQLQQSGAEVKKPGSSVKVSCKASGDTFSSFGISWVRQVPGQGLEWMGAIIPKFDIVTYAEEFKGRVTISADKLTNTAYMEVKSLRSEDTAVYYCTREKSAAGYFDYWGKGTLVTVSSGGGGSGGGGSGGGGSDIVMTQSPSTLSASVGDRVTITCRASQGISSWLAWYQQKPGRAPKVLIYKASTLESGVPSRFSGSGSGTDFTLTISSLQPEDFATYYCQQSYSTPWTFGQGTKLEIKR
# B3: I064C07 (scFv)
# scFv: QVQLVQSGAEVKKPGSSVKVSCKASGGTFSSYAISWVRQAPGQGLEWMGGIIPIFGTANYAQKFQGRVTITADDLTRTAYMEMSSLKFEDTAVYYCASSEGTIFGVDWGRGTLVTVSSGGGGSGGGGSGGGGSDIQMTQSPSFLSASVGDRVTITCRASQGINNYLAWYQQKPGRAPKLLMYAASSLQSGVPSRFSGSGSGTDFTLTISSLQPEDFATYYCLQDSDYPLTFGGGTKLEIKR
# B4: I064C04 (scFv)
# scFv: QVQLVQSGAEVKKPGASVKVSCEASGYTFTSYGISWVRQAPGQGLEWMGWISTYNGNTRYPQKLQGRVTMTTDTSTSTAYMDLRSLRSDDTAVYYCARDGRLSYDILTGYYARDYYGMDDWGRGTMVTVSSGGGGSGGGGSGGGGSQSVLTQPASVSGSPGQSITISCTGTSSDVGGYNYVSWYQQHPGKAPKLMIYEGSKRPSGVSNRFSGSKSGNTASLTISGLQAEDEADYYCSSYTTRSTRVFGGGTKLTVLG
# B5: I075F12 (scFv)
# scFv: QVQLVQSGAEVKKPGSSVKVSCKASGGTVSSRTISWVRQAPGQGLEWMGGSLPPSGAPIYAQKFQGRVAITADALTNTAFMELRSLKSDDTAVYYCARDQGRYLDLWGQGTMVTVSSGGGGSGGGGSGGGGSAQAVLTQPSSASGTPGQRATISCSGSSSDIGINAVNWYKQLPRTAPKLLIYRNNQRPSGVPDRFSGSKSGTSASLAIIGLQSEDEADYYCATWDDSLTAYVFGTGTKVTVLG
# B6: I067F05 (scFv)
# scFv: QVQLQQSGAEVKKPGSSVKVSCKASGGTFSSYAISWVRQAPGQGLEWMGRIIPIVNMANYAQKFQGRVTLTADKSTGTAYMELTSLRSEDTAVYYCARENYDSLTGYYGAFDIWGKGTMVTVSSGGGGSGGGGSGGGGSQSVLTQPASVSGSPGQSITISCTGTSSDVGGYNYVSWYQQHPGKAPKLMIYEGSKRPSGVSNRFSGSKSGNTASLTISGLQAEDEADYYCSSYTTRSTRVFGGGTKLTVLG
# B7: I065D08 (scFv)
# scFv: GVQLVQSGAEVKKPGASVKVSCKASGYTFTSYGISWVRQAPGQGLEWMGWISAYNGNTNYAQKLQGRVTMTTDTSTSTAYMELRSLRSDDTAVYYCARTPSSVYDLLTGYYHYFYSYMDVWGRGTMVTVSSGGGGSGGGGSGGGGSQSVLTQPASVSGSPGQSITISCTGTSSDVGGYNYVSWYQQHPGEAPKLMIYEGSKRPSGVSNRFSGSKSGNTASLTISGLQAEDEADYYCSSYTTRSTRVFGGGTKLTVLG
# B8: I072B09 (scFv)
# scFv: QVQLQQSGAEVKKPGASVKVSCRASGYTFTKYTMHWVRQAPGQGPEWMGWINGGSGDTKYSRKFQGRVTITKDTSASAAYMELSSLGSEDTALYYCARATYDPLTGYSFDGFDIWGQGTLVTVSSGGGGSGGGGSGGGGSSELTQDPAVSVALGQTVRITCQGDSLRSYYTNWFQQKPGQAPLLVVYAKNKRPSGIPDRFSGSSSGNTASLTITGAQAEDEADYYCNSRDSSGNHVVFGGGTKLTVLD
# B9: I002A01-R (scFv)
# scFv: QVQLVQSGAEVKKPGSSVKVSCRASGGSFNRHAISWVRQAPGRGLEWMGGILPMYGTANYAQKFQGRVTITADKLTNTVYMDLSRLRYEDTAVYYCARELGLSIVGATTGALDMWGKGTLVTVSSGGGGSGGGGSGGGGSALPVLTQPPSVSVAPGQTATLTCGGTNFGRQSVHWYQQKPGQAPVLAIYHDDVRPSGIPERLSGSKSGNTATLTISRVEAGDEAAYYCQVWDSGSDVVVFGGGTKLTVLG
# B10: I002A01-K (scFv)
# scFv: B9 scFv with R31K
# B11: I069B07 (scFv)
# scFv: QVQLVQSGAEVKKPGASVKVSCKASGYTFTSYGISWVRQAPGQGLEWMGWISAYNGNTNYAQKLQGRVTMTTDTSTSTAYMELRSLRSEDTAVYYCARMEYDILTGYYGGYFDYWGQGTMVTVSSGGGGSGGGGSGGGGSQSVLTQPASVSGSPGQSITISCTGTSSDVGGYNYVSWYQQHPGKAPKLMIYEGSKRPSGVSNRFSGSKSGNTASLTISGLQAEDEADYYCSSYTTRSTRVFGGGTKLTVLG
# B12: I030A10 (scFv)
# scFv: QVQLVQSGAEVKKPGSSVKVSCRASGGSFNHAISWVRQAPGRGLEWMGGILPMYGTANYAQKFQGRVTITADKLTNTVYMDLSRLRYEDTAVYYCARELGLSIVGATTGALDMWGRGTLVTVSSGGGGSGGGGSGGGGSAQAVLTQPSSVSGAPGQRVIISCTGSSSNIGPDYDVHWYQQLPGTAPKLLIYGNNNRPSGVPDRFSGSKSGTSASLAITGLQAEDEAHYYCQSYGSSLSGVVFGGGTKVTVLG
# B13: I067B10 (scFv)
# scFv: QMQLVQSGAEVKKPGASVKVSCKASGYTFTSYYMHWVRQAPGQGLEWMGWINAGNSNTKYSQKFQGRVTITSDTSASTAYMELSGLRSEDTAVYYCARDRGAPNYDILTGYYAPAQGVAFDIWGKGTLATVSSGGGGSGGGGSGGGGSQSVLTQPPSVSAAPGQKVTISCSGSTSNIGNNYVSWYQQHPGKAPKLMIYDVSKRPSGVPDRFSGSKSGNSASLDISGLQSEDEADYYCAAWDDSLSEFLFGTGTKLTVLG
# B14: I075G01 (scFv)
# scFv: QVQLVQSGAEVKKPGASVKVSCKTSGYTFTGYNINWVRQAPGQGLEWMGWVSPSNGDTSYAQTFQGRVTMTRDTSISTAYMELSSLKSDDTAVYYCARDHFDTLTGYFRRLDSWGQGTLVTVSSGGGGSGGGGSGGGGSALSSELTQDPEVSVALGQTVTITCQGDSLITHYASWFQQKPGQAPLLVFYSKDKRPSGIPDRFSGSYSGNTASLTITGAQAEDEADYYCNSRDSRGKNHVAFGGGTKLTVLG
# B15: I079C01 (scFv)
# scFv: EVQLVESGGGLVQPGGSLRLSCAASGFTFSDYGMHWVRQRPGKGLEWIAFIGSDGSNKYYGDTVKGRFTISRDNAKNSLYLQMNSLRAEGTAVYYCARDWDMDVWGQGTMVTVSSGGGGSGGGGSGGGGSHVILTQPRSVSGSPGQSVTISCTGTSSDVGGYHYVSWYQQHPGKAPRLMIYEVTKRPSGVSNRFSGSKSGNTASLTISGVQAEDEADYYCSSYTSASTVIFGGGTKLTVLG
# B16: I084C04 (scFv)
# scFv: VQLVQSGAEVKKPGASVKVSCKASGYTFTSYGISWVRQAPGQGLEWMGWINPNSGGTNYAQKFQGRVTMTRDTSISTAYMELSRLRSDDTAVYYCARNLWGLDYWGKGTMVTVSSGGGGSGGGGSGGGGSSELTQDPAVSVALGQTVRITCQGDSLRSYYASWYQQKPGQAPVLVIYGKNNRPSGIPDRFSGSSSGNTASLTITGAQAEDEADYYCNSRDSSGNHVVFGGGTKLTVLG
# B17: I083B12 (scFv)
# scFv: QVQLVQSGAEVKKPGASVKVSCKASEYTFYNHYMHWVRQAPGQGLEWMGFINPSGDAAWYAQKFQGRVTLTRDTSTRTVYMELSGLTSEDTAVYYCARESGAGGYYYDDYWGKGTLVTVSSGGGGSGGGGSGGGGSALSYVLTQPPSVSVAPGKTASIPCGGNNIGSKSVQWYLQKAGQAPILVVYDDSDRPSGIPERFSGSNSGNTATLTITRVEAGDEADYYCQVWDSSSDHWFFGGGTKLTVLG
# B18: I080E05 (scFv)
# scFv: EVQLVQSGAAVKKPGASVKVSCKASGYTFTTYYIHWVRQAPGQGLEWMGIINPVNGNTIYAQKFQGRVTMTRDTSTGTVNMELSSLRSEDTAVFYCVREGGGDAYDVAPYYFDYWGQGTLVTVSSGGGGSGGGGSGGGGSAQAVLTQPSSVSGAPGQRVTISCTGSSSNIGDGYDVHWYQQLPGTAPKLLIYGNSHRPSGVPDRFSGSKSDTSASLAITGLQVEDEADYFCHSYDSSVSGWIFGGGTKLTVLG
# Molecular target: T1, biotinylated B Lymphocyte Stimulator, soluble form (human, UniProt Q9Y275 134-285, biotinylated with NHS-biotin, molar ratio 20:1 biotin:protein)
# T1 construct: also called bio-B Lymphocyte Stimulator; free B Lymphocyte Stimulator
# Test: phage scFv, receptor binding inhibition on IM9 cells
# Procedure: All of the unique phage scFvs from panel 2 were assessed for their ability to inhibit B Lymphocyte Stimulator binding to its cognate receptor on IM9 cells. The biotinylation of B Lymphocyte Stimulator, maintenance of IM9 cells and receptor binding inhibition assay were performed as described in Example 3.
row,binding result,Binder
1,binds,B1
2,binds,B2
3,binds,B3
4,binds,B4
5,binds,B5
6,binds,B6
7,binds,B7
8,binds,B8
9,binds,B9
10,binds,B10
11,binds,B11
12,binds,B12
13,binds,B13
14,binds,B14

# Molecular target: T2, HIS-tagged B Lymphocyte Stimulator (human, UniProt Q9Y275 71-285)
# T2 construct: Expressed in E. coli; also called HIS-B Lymphocyte Stimulator; histidine-tagged B Lymphocyte Stimulator; not shown: histidine tag from the pQE9 vector
# Test: BIAcore, periplasmic scFv over high density HIS-BLyS surface
# Procedure: All BIAcore analysis was performed on BIAcore 2000 machines, using the BIAcore 2000 control software and evaluated using the BIAevaluation 3.0 software. A high density His-tagged B Lymphocyte Stimulator surface (>1000 RU HIS-B Lymphocyte Stimulator coupled) was prepared in flow cell 2 by amine coupling to a CM5 chip. A new CM5 chip was inserted into the BIAcore and a sensorgram started over flow cell 2 with HBS buffer at a flow rate of 5 μl/min. The NHS and EDC solution were mixed 1:1 before injecting 30 μl over the CM5 surface. Fifty μl HIS-B Lymphocyte Stimulator (at 10 μg/ml in Sodium acetate buffer, pH4) was injected and allowed to couple to the surface. Thirty μl of ethanolamine-HCl solution was then injected to block free NHS esters. Prior to using the chip, 10 μl of 4M Guanidine hydrochloride in HBS was injected over the surface to strip the surface of non-covalently bound B Lymphocyte Stimulator. A blank surface (no HIS-B Lymphocyte Stimulator) was also prepared over flow cell 1 so that non-specific binding effects can be subtracted from the HIS-B Lymphocyte Stimulator binding curves.
# The 96-well plate containing periplasmic scFvs was secured inside the BIAcore. Two ml of 4M Guanidine hydrochloride in HBS was placed in a rack inside the BIAcore for regeneration of the HIS-B Lymphocyte Stimulator surface between samples. The sensorgram was run over flow cells 1 and 2 at a flow rate of […].
row,binding result,Binder
1,binds,B15
2,binds,B16
3,binds,B17
4,binds,B18
